Measured values: US20020102256A1 (ZymoGenetics, published 2002)
Several values for one entry are separate records, joined by “and”; a condition that tells them apart may be missing. Identical values can stand only once.

Assays:
Assay in all cases: cell-based or functional assay
[1] = target: T1, Activated human C1s (Calbiochem-Novabiochem Corporation) (human, UniProt P09871 16-688)
T1 sequence (looked up): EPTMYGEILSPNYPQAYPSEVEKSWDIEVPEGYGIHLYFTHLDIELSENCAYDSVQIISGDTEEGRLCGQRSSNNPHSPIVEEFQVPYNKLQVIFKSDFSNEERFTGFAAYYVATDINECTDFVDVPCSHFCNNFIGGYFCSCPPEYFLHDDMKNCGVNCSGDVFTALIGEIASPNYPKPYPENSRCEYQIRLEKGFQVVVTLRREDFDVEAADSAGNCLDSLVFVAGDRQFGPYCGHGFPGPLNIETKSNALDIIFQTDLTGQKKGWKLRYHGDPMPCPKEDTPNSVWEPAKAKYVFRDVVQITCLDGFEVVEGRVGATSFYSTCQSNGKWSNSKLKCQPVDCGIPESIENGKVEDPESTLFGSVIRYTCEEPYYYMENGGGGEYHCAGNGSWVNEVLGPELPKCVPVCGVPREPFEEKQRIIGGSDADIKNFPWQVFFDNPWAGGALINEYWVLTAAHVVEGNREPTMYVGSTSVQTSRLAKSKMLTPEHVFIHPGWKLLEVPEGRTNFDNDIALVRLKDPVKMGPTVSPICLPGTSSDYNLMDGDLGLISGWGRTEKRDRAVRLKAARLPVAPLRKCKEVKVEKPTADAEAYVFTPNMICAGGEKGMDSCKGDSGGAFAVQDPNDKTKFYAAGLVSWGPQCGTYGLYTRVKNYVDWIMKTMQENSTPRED

[2] = target: T1, Activated human C1s …; remark: listed apart in the source
[3] = target: T2, Activated human C1s (Calbiochem-Novabiochem Corporation) (human) (UniProt P09871)
T2 sequence (looked up): T1 sequence (looked up)

B1: Deglycosylated and cleaved recombinant BD001 (other)
chain 1: AKKKLPKCQKQEDCGSWDLKCNNVTKKCECRNQVCGRGCPKERYQRDKYGCRKCLCKGCDGFKCR
chain 2: LGCTYGFKTDKKGCEAFCTCNTKETACVNIWCTDPYKCNPESGRCEDPNEEYEYDYE
modifications: sulfation of at least one of Tyr117, Tyr119 and Tyr121; glycan at Asn23 removed with PNGase F
IC50 (nM), C1s enzyme assay [1]: 21.9 nM

B2: Desulfated and cleaved recombinant BD001 (other)
chain 1: B1 chain 1
chain 2: B1 chain 2
modifications: sulfate groups removed from Tyr117/Tyr119/Tyr121 with aryl sulfatase; glycosylation at Asn23 (fucosylated complex-type core)
IC50 (nM), C1s enzyme assay [1]: 558 nM

B3: Cleaved recombinant BD001 (other)
chain 1: B1 chain 1
chain 2: B1 chain 2
modifications: sulfation of at least one of Tyr117, Tyr119 and Tyr121; glycosylation at Asn23 (fucosylated complex-type core)
fold higher IC50 than the matched, intact form, C1s enzyme assay [2]: ~10 fold
IC50 (nM), C1s enzyme assay [1]: 19.8 nM

B4: Recombinant BD001 expressed in Baculovirus (protein)
chain: AKKKLPKCQKQEDCGSWDLKCNNVTKKCECRNQVCGRGCPKERYQRDKYGCRKCLCKGCDGFKCRLGCTYGFKTDKKGCEAFCTCNTKETACVNIWCTDPYKCNPESGRCEDPNEEYEYDYE
modifications: glycosylation at Asn23 (fucosylated complex-type core); sulfation of at least one of Tyr117, Tyr119 and Tyr121 (tyrosine sulfation at the C-terminus on three tyrosine residues)
IC50 (nM), C1s enzyme assay [3]: 2.5 nM
IC50, C1s enzyme assay (decrease in Vmax of Pefa-C1E cleavage) [3]: 5.2 nM

B5: Deglycosylated recombinant BD001 (protein)
chain: B4 chain
modifications: glycan at Asn23 removed with PNGase F; sulfation of at least one of Tyr117, Tyr119 and Tyr121
IC50 (nM), C1s enzyme assay [3]: 2.86 nM

B6: Desulfated recombinant BD001 (protein)
chain: B4 chain
modifications: sulfate groups removed from Tyr117/Tyr119/Tyr121 with aryl sulfatase; glycosylation at Asn23
IC50 (nM), C1s enzyme assay [3]: 36 nM

B7: BD001 protein isolated from Pichia methanolica (protein)
chain: B4 chain
modifications: lacks tyrosine sulfation at the C-terminus and N-glycosylation
IC50, C1s enzyme assay (decrease in Vmax of Pefa-C1E cleavage) [3]: 44 nM
fold decrease in activity in bioassays compared with the baculovirus-expressed material [3]: 10 fold
fold less active than the baculovirus material, C1s enzyme assay [3]: 8 fold

B8: BD001 isolated from tissue (protein)
chain: B4 chain
modifications: glycosylation at Asn23 (fucosylated complex-type core); sulfation of at least one of Tyr117, Tyr119 and Tyr121
IC50 (nM), C1s enzyme assay [3]: 4 nM and 4.7 nM
